# Biological target: griffithsin (GRFT)
# Test: AUC
substance,measurement,value
griffithsin (GRFT) (natural protein),stoichiometry N,2
